Assay [1] has as its target human Mac-1 (integrin αMβ2, CD11b/CD18) (human) (UniProt P11215). Description: flow cytometry, HEK293/Mac-1 cells (clone 1-4), PBS (Mock). For orientation: Flow cytometry measures light scatter and fluorescence of single cells or particles in a stream.
Assay [2] shares this target. Nature of the assay: flow cytometry, HEK293/Mac-1 cells; MFI in PBS over MFI in PBS/MnCl2.
The target is the same in assay [3]. Description: flow cytometry, HEK293/Mac-1 cells (clone 1-4), PBS/MnCl2 (Mn2+).
Assay [4] has the same target. Description: flow cytometry, HEK293/Mac-1 cells, PBS/MnCl2 (Mn2+), 10 µg/ml of this antibody; binding of reporter mAb KIM127 read.
Assay [5] has the same target. Description: flow cytometry, HEK293/Mac-1 cells, PBS/MnCl2 (Mn2+), 10 µg/ml of this antibody; binding of reporter mAb m24 read.
The target is the same in assay [6]. Nature of the assay: flow cytometry, HEK293/Mac-1 cells, PBS (Mock), 10 µg/ml of this antibody; binding of reporter mAb KIM127 read.
For assay [7] the target is unchanged. Nature of the assay: flow cytometry, HEK293/Mac-1 cells, PBS (Mock), 10 µg/ml of this antibody; binding of reporter mAb m24 read.
Assay [8] has the same target. Description: flow cytometry, HEK293/Mac-1 cells, PBS/MnCl2 (Mn2+); binding of reporter mAb m24 read; control IgG4, the reference set to 1.
The target is the same in assay [9]. Description: flow cytometry, HEK293/Mac-1 cells, PBS/MnCl2 (Mn2+); binding of reporter mAb KIM127 read; control IgG4, the reference set to 1.
For assay [10] the target is unchanged. Description: flow cytometry, HEK293/Mac-1 cells, PBS (Mock); binding of reporter mAb m24 read; control IgG4, the reference set to 1.
Assay [11] has the same target. Description: flow cytometry, HEK293/Mac-1 cells, PBS (Mock); binding of reporter mAb KIM127 read; control IgG4, the reference set to 1.
Assay [12] shares this target. Description: flow cytometry, HEK293/Mac-1 cells; MFI in PBS over MFI in PBS/MnCl2; isotype control.
The target is the same in assay [13]. Description: flow cytometry, HEK293/Mac-1 cells (clone 1-4), PBS/MnCl2 (Mn2+); isotype control.
The target is the same in assay [14]. Nature of the assay: flow cytometry, HEK293/Mac-1 cells (clone 1-4), PBS (Mock); isotype control.

Take “CD11b activation-sensing mAb (CBRM1/5) (antibody)”: in assay [1], the Mock MFI was determined as 143000 MFI. For the same substance, the Mock/Mn^2+ Ratio in assay [2] is 0.79. In assay [3], this substance displayed a Mn^2+ MFI of 181000 MFI.

In the case of “CD11b specific mAb (clone ICRF44) (antibody)”, the values for the KIM127 (Expression relative to IgG4) (relative to IgG4) in assay [4] and in [6] were 0.75 and 0.94, respectively. Also, the Mock MFI in assay [1] amounted to 805000 MFI. The m24 (Expression relative to IgG4) (relative to IgG4) in [5] and in assay [7] was 0.66 throughout. The Mock/Mn^2+ Ratio in [2] stood at 1.01. The same substance had a Mn^2+ MFI in [3] of 801000 MFI.

Regarding IgG4 control (antibody), the m24 (Expression relative to IgG4) (relative to IgG4) in assay [8] and in [10] was 1 each time. Further, the KIM127 (Expression relative to IgG4) (relative to IgG4) in [9] and in assay [11] was 1 in each case.

Turning to M1/70 (antibody), the KIM127 (Expression relative to IgG4) (relative to IgG4) in assay [4] is 0.84; in [6] it was 0.94. For the same substance, the m24 (Expression relative to IgG4) (relative to IgG4) turned out to be 0.8 in [5] and 0.71 in assay [7].

Consider isotype control IgG (antibody), for which the Mock/Mn^2+ Ratio in assay [12] was found to be 1.01. Moreover, the Mn^2+ MFI in assay [13] is 935 MFI. In [14], the Mock MFI came to 941 MFI.
